Publication PMC2139825

Target: bacterially expressed full-length chicken CRP1 (chicken) (UniProt P67966)
Assay: radioligand binding

Chain of UniProt P67966 (P67966 whole entry): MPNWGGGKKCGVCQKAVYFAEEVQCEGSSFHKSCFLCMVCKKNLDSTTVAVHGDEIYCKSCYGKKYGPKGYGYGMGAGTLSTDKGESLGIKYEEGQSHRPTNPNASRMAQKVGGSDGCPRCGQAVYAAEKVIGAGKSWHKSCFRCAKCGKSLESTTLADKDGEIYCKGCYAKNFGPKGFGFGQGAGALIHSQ

For “α-actinin (avian smooth muscle) (from UniProt P05094 1-893) (natural protein)”, the Kd was 1.8 µM and the cpm bound specifically (0.26 pmoles [125I]α-actinin in 120 μl, no competitor) was 3080 cpm.
